In this test the target is HLA-DM wild type, biotinylated at a BirA site on the C-terminus of DMα (human) (UniProt P28067). Nature of the test: SPR.
Sequence of UniProt P28067 (P28067 27-261, chain 1 of 2): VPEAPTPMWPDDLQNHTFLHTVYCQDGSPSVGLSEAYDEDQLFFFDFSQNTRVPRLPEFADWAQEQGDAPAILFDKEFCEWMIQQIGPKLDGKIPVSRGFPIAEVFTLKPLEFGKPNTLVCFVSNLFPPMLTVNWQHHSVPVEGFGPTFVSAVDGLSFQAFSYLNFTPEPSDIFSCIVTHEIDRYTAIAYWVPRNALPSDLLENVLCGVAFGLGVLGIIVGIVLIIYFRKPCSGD
Sequence of UniProt P28067 (P28068 19-263, chain 2 of 2, further chain): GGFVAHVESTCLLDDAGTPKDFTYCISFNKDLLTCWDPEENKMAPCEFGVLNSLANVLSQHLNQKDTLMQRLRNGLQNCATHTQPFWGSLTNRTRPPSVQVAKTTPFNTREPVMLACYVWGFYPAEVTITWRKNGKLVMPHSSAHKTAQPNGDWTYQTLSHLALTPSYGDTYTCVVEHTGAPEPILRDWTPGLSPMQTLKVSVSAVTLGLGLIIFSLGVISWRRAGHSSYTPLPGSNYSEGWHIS

For “HLA-DR1 with a covalently linked, N-terminally truncated HA-like peptide (P2 to P11) (peptide-MHC)”, the fold lower affinity at pH 6.5 than at pH 5.5 was determined as 3 fold.

(Values after paper PMC3530167.)
